Positions count from the first letter of the chain named. Like-named read-outs stand apart in the source and are kept apart here. Values belong to the binder of their own block, whether it stands above or below them.
Key:
Human BTC [1] = target: T1, Human BTC (human, UniProt P35070 32-111); assay: SPR Biacore T200, anti-Fab capture, antigen as analyte
T1 construct: Soluble human BTC of the Biacore, ELISA, MSD and cell assays; also called human betacellulin; soluble human BTC
T1 sequence: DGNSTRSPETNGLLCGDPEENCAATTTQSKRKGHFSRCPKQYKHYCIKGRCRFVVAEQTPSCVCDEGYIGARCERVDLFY

Human VEGF165 [2] = target: T2, Human VEGF165 (human, UniProt P15692 27-191); assay: as above
T2 construct: mature; biotinylated in the VEGFR2 ELISAs; also called human VEGF-A; VEGF-A

Human VEGF165 [3] = target: T2, Human VEGF165; assay: competition ELISA: antibody pre-incubated with 400 pM VEGF-biotin, added to coated VEGFR2, streptavidin-HRP detection; y axis OD
Experimental: (§1) The plates were then washed 3 times using 1λTBST. The plates were blocked in 2% BSA diluent (0.1% Tween 20/0.1% TirtonX100) overnight. After blocking, the plates were washed 3 times using TB ST and then the sample mixture was added at 20 μl/well. The sample mixture consisted a final fixed concentration of VEGF-biotin (in-house) at 400 pM and a 15 point 1:2 serial dilution of the antibody starting at 20 nM. The sample mixture was pre-incubated for 1 hour prior to adding to the plate and then incubated for another hour at room temperature on the plate. Afterwards, the plate was washed 3 times using TBST and 20 μl/well of Streptavidin-HRP diluted at 1:5000 was added for an incubation time of 1 hour. The plates were washed 3 times in TBST and then 20 μl/well of TMB substrate was added. TMB is a chromogen that yields a blue color when oxidized. TMB was incubated for 10 minutes until the signal saturated in the no antibody samples, and then 10 μl/well of 2N sulfuric acid was added which then changes the blue color to yellow and this now has a maximum absorbance at 450 nm.

Human BTC-avitag-biotin [4] = target: T3, Human BTC-avitag-biotin (human, UniProt P35070 32-111, biotin on the avitag); assay: flow cytometry: inhibition of biotin-BTC binding to HKB11 cells over-expressing ErbB4; y axis Fluorescent Intensity
T3 construct: also called biotin-BTC; soluble human BTC-avitag-biotin
T3 sequence: T1 sequence
Experimental: (§2) In order to assess potency of the Fabs and bispecific in neutralizing binding of BTC to its receptor Erb 1 or ErbB4, the following assay was performed. HKB11 over-expressing either ErbB1 or ErbB4 cells were plated 1×10⁵ cells/well. Cells were washed once with FACS buffer by spun down at 1200 rpm for 5 minutes and supernatant removed. Next, the Fab sample dilutions and BTC were prepared in FACS buffer. Human BTC-avitag-biotin was diluted to a fixed concentration of 15 nM. The test Fab samples were prepared at a starting concentration of 40 nM and titrated for 9 points at a serial dilution of 1:2. Both biotin-BTC and the test Fab samples are incubated for 30 minutes at room temperature. The pre-incubated samples were then added to the cell plate at 100 μl per well in duplicate and incubated for 1 hour on ice. The plate was then washed once in FACS buffer and spun down at 1200 rpm for 5 minutes and supernatant removed. After suspending the cell pellet with 100 μl/well of diluted secondary antibody streptavidin-Alexa Fluor488 (1:2000) in FACS buffer, the cells were then incubated for 60 min on ice. The cells were washed once with FACS buffer and re-suspended in 120 μl of FACS buffer for flow cytometric analysis.
(§3) Measurements were performed on Attune Flow Cytometry machine. Data were analysed using the Flow Jo software. The live cell populations analysed were gated in forward and side scattering (FSC-A/SSC-A dot plot). The interval gate was established on the control histogram, which was obtained with sample incubated in streptavidin-Alexa Fluor488 only, and subsequently, determined percent of positive binding events of cells carrying membrane-bound receptor ErbB1 or ErbB4 and biotin-BTC. The median of fluorescence intensity (MFI) value was also derived for the live cell population. MFI values were then used to calculate for percent inhibition of test sample and subsequently plotted in GraphPad Prism 7.03 using nonlinear regression (curve fit) model to generate IC50 value.

Human BTC-avitag-biotin [5] = target: T3, Human BTC-avitag-biotin; assay: flow cytometry: inhibition of biotin-BTC binding to HKB11 cells over-expressing ErbB1; y axis Fluorescent Intensity
Experimental: as §2, §3

[6] = target: T4, membrane-bound human BTC on 293F-hBTC cells (human, UniProt P35070 32-111); assay: flow cytometry on 293F cells with membrane-bound human BTC; y axis % Pos Binding
T4 construct: the transfected construct is not described; also called membrane-anchored BTC
T4 sequence: T1 sequence
Experimental: After washing the cells, the cells were dissociated using Versene at 37° C. The cells were washed with FACS buffer and plated at 100 μl in a 96 well plate using cells at 1×10⁶ cells/ml. Then 100 μl of a serial dilution of antibodies starting at 50 nM was used. The cells were incubated, washed and then treated with the secondary anti-human Fab-FITC antibody. The antibodies only bound to the cells expressing BTC. After which the cells were washed and analyzed on the Attune Flow Cytometry. All data analysis was carried out using Flow Jo software.
In FIG. 6A, Flow cytometry was used to assess the binding of NVS11 to membrane-bound BTC using an anti-human Fab antibody for detection.

Human BTC [7] = target: T1, Human BTC; assay: cell-based inhibition of BTC binding to ErbB1
Human BTC [8] = target: T1, Human BTC; assay: cell-based inhibition of BTC binding to ErbB4
[9] = target: T4, membrane-bound human BTC on 293F-hBTC …; assay: flow cytometry, 293F cells with BTC against 293F
Rabbit BTC = target: T5, Rabbit BTC (rabbit, UniProt G1SJ89 32-111); assay: SPR (Biacore/ProteOn)
T5 sequence: T1 sequence with D1S, L14S, D17Y, E19G, A23T, T27V, S29P, V63I, I69T

Mouse BTC = target: T6, Mouse BTC (mouse, UniProt Q05928 32-111, limits assumed); assay: SPR (Biacore/ProteOn)
T6 sequence (looked up): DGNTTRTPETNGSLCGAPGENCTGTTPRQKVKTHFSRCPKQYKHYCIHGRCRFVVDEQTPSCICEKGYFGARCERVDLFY

Human BTC [10] = target: T1, Human BTC; assay: SPR (Biacore/ProteOn)
Rat BTC = target: T7, Rat BTC (rat, UniProt Q9JJM4 32-111); assay: SPR (Biacore/ProteOn)
T7 sequence: T6 sequence (looked up) with V31S, V55M, R75Q

Cyno BTC = target: T8, Cyno BTC (cynomolgus, UniProt A0A2K5X5E5 32-111); assay: SPR (Biacore/ProteOn)
T8 construct: also called cynomolgus BTC
T8 sequence: T1 sequence with E19D, A56T

Human BTC [11] = target: T1, Human BTC; assay: MSD-based inhibition of BTC binding to ErbB4
Human BTC [12] = target: T1, Human BTC; assay: MSD-based inhibition of BTC binding to ErbB1
Human VEGF165 [13] = target: T2, Human VEGF165; assay: SPR Biacore T200, anti-Fab capture
Human BTC [14] = target: T1, Human BTC; assay: cell-based or functional assay
[15] = target: T4, membrane-bound human BTC on 293F-hBTC …; assay: cell-based or functional assay
Human VEGF165 [16] = target: T2, Human VEGF165; assay: competition ELISA: antibody pre-incubated with 400 pM VEGF-biotin, added to coated VEGFR2, streptavidin-HRP detection; y axis OD; remark: listed apart in the source
Experimental: as §1

T2 sequence (P15692 other isoform, or with tags, fused parts or gaps): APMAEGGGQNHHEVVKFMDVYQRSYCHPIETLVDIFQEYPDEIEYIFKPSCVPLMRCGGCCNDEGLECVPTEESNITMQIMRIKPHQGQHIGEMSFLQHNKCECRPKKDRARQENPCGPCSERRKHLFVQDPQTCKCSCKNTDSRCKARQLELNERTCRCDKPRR

B3: NVS2 (Fab, V domains shown)
VH: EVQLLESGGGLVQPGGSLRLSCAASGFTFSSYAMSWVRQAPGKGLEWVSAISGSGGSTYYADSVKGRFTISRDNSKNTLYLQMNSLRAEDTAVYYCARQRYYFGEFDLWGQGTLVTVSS
VL: SYELTQPPSVSVSPGQTASITCSGDKLGDKYAYWYQQKPGQSPVLVIYQDSKRPSGIPERFSGSNSGNTATLTISGTQAEDEADYYCQAFDYLYSLGVFGGGTKLTVLG
notes: also called Fab NVS2; anti-BTC Fab
Cell-based binding inhibition BTC/ErbB1 (Human BTC [7]): > 90% | Kd (Human BTC [1]): 0.0047 nM | Cell-based binding inhibition BTC/ErbB4 (Human BTC [8]): > 90% | Binding to membrane-anchored BTC (median, X above 293F) [9]: > 10 X above 293F | Kd (Rabbit BTC): 0.005 nM | Kd (Mouse BTC): 0.009 nM | Kd (Human BTC [10]): 0.014 nM | Kd (Rat BTC): 0.021 nM | Kd (Cyno BTC): 0.016 nM | IC50 (Human BTC-avitag-biotin [4]): 1.83 nM | MSD-based binding inhibition BTC/ErbB4 (Human BTC [11]): > 90% | MSD-based binding inhibition BTC/ErbB1 (Human BTC [12]): > 90% | binding result (Human VEGF165 [13]): no binding | EC50 [6]: 0.256 nM | A431 pERK (IC50 in nM) (Human BTC [14]): 0.37 nM | ADR/Res pErbB3 (IC50 in nM) (Human BTC [14]): 6.3 nM | inhibition (Human BTC [14]): 99.7% | Neutralization of juxtacrine signaling [15]: 90% | IC50 (Human BTC-avitag-biotin [5]): 1.73 nM

B4: NVS12 (bispecific antibody)
heavy: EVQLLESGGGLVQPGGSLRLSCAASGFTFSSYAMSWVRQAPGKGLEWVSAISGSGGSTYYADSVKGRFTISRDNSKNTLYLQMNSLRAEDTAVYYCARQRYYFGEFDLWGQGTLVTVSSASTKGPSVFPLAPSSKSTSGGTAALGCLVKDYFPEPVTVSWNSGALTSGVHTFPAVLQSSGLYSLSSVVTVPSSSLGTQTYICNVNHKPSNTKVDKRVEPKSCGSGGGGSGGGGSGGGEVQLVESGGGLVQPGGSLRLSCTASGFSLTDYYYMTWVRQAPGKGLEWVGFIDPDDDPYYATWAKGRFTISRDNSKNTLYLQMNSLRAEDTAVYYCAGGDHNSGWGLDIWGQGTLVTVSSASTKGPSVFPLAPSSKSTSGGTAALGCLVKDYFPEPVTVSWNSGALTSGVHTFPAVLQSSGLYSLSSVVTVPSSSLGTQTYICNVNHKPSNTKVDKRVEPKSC
light: SYELTQPPSVSVSPGQTASITCSGDKLGDKYAYWYQQKPGQSPVLVIYQDSKRPSGIPERFSGSNSGNTATLTISGTQAEDEADYYCQAFDYLYSLGVFGGGTKLTVLGQPKAAPSVTLFPPSSEELQANKATLVCLISDFYPGAVTVAWKADSSPVKAGVETTTPSKQSNNKYAASSYLSLTPEQWKSHRSYSCQVTHEGSTVEKTVAPTECSGSGGGGSGGGGSGGGEIVMTQSPSTLSASVGDRVIITCQASEIIHSWLAWYQQKPGKAPKLLIYLASTLASGVPSRFSGSGSGAEFTLTISSLQPDDFATYYCQNVYLASTNGANFGQGTKLTVLKRTVAAPSVFIFPPSDEQLKSGTASVVCLLNNFYPREAKVQWKVDNALQSGNSQESVTEQDSKDSTYSLSSTLTLSKADYEKHKVYACEVTHQGLSSPVTKSFNRGEC
notes: Fab-Fab: NVS2 Fab, (GSGGG)3 linker, NVS8 Fab; also called anti-BTC/anti-VEGF bispecific Fab; bispecific Fab-Fab
Kd (Human BTC [1]): 0.006 nM | Kd (Human VEGF165 [2]): 0.017 nM | IC50 (Human BTC-avitag-biotin [4]): 2.19 nM | EC50 [6]: 0.137 nM | IC50 (Human BTC-avitag-biotin [5]): 1.6 nM | IC50 (Human VEGF165 [16]): 1.2 nM

Binders with a lower Kd (Human BTC [1]), results first:

Kd (Human BTC [1]): 0.002 nM | Kd (Human VEGF165 [2]): 0.016 nM | IC50 (Human VEGF165 [3]): 1.33 nM | IC50 (Human BTC-avitag-biotin [4]): 2.32 nM | IC50 (Human BTC-avitag-biotin [5]): 2.17 nM
B1: NVS14 (bispecific antibody)
heavy: QVQLLESGGGLVQPGGSLRLSCAASGFTFSRYWISWVRQAPGKGLEWVSYIDSTGTFINYADSVKGRFTISRDNSKNTLYLQMNSLRAEDTAVYYCARGGSLFDYWGQGTLVTVSSASTKGPSVFPLAPSSKSTSGGTAALGCLVKDYFPEPVTVSWNSGALTSGVHTFPAVLQSSGLYSLSSVVTVPSSSLGTQTYICNVNHKPSNTKVDKRVEPKSCGSGGGGSGGGGSGGGEVQLVESGGGLVQPGGSLRLSCTASGFSLTDYYYMTWVRQAPGKGLEWVGFIDPDDDPYYATWAKGRFTISRDNSKNTLYLQMNSLRAEDTAVYYCAGGDHNSGWGLDIWGQGTLVTVSSASTKGPSVFPLAPSSKSTSGGTAALGCLVKDYFPEPVTVSWNSGALTSGVHTFPAVLQSSGLYSLSSVVTVPSSSLGTQTYICNVNHKPSNTKVDKRVEPKSC
light: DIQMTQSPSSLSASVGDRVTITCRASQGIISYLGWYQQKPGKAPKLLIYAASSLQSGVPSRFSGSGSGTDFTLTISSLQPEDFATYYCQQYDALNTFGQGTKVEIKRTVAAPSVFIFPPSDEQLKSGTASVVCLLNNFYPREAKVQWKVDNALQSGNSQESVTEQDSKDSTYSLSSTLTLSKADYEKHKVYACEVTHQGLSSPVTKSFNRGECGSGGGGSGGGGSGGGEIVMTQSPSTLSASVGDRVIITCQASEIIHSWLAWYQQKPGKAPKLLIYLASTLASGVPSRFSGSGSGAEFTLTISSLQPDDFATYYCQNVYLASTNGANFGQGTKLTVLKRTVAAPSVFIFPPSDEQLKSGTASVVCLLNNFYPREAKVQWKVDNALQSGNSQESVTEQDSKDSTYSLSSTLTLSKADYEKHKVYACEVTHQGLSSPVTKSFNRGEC
notes: Fab-Fab: NVS4 Fab, (GSGGG)3 linker, NVS8 Fab; also called anti-BTC/anti-VEGF bispecific Fab; bispecific Fab-Fab

Kd (Human BTC [1]): 0.0018 nM | Kd (Human VEGF165 [2]): 0.0065 nM | IC50 (Human BTC-avitag-biotin [4]): 2.12 nM | EC50 [6]: 0.194 nM | IC50 (Human BTC-avitag-biotin [5]): 1.82 nM
B2: NVS13 (bispecific antibody)
heavy: QVQLLESGGGLVQPGGSLRLSCAASGFTFSSYAMSWVRQAPGKGLEWVSGLGHVGYTTYTDSVKGRFTISRDNSKNTLYLQMNSLRAEDTAVYYCARDYLDFGYYFDVWGQGTLVTVSSASTKGPSVFPLAPSSKSTSGGTAALGCLVKDYFPEPVTVSWNSGALTSGVHTFPAVLQSSGLYSLSSVVTVPSSSLGTQTYICNVNHKPSNTKVDKRVEPKSCGSGGGGSGGGGSGGGEVQLVESGGGLVQPGGSLRLSCTASGFSLTDYYYMTWVRQAPGKGLEWVGFIDPDDDPYYATWAKGRFTISRDNSKNTLYLQMNSLRAEDTAVYYCAGGDHNSGWGLDIWGQGTLVTVSSASTKGPSVFPLAPSSKSTSGGTAALGCLVKDYFPEPVTVSWNSGALTSGVHTFPAVLQSSGLYSLSSVVTVPSSSLGTQTYICNVNHKPSNTKVDKRVEPKSC
light: SYELTQPLSVSVALGQTARITCSGDKIGKKYVHWYQQKPGQAPVLVIYDDSDRPSGIPERFSGSNSGNTATLTISRAQAGDEADYYCQAWDMQSVVFGGGTKLTVLGQPKAAPSVTLFPPSSEELQANKATLVCLISDFYPGAVTVAWKADSSPVKAGVETTTPSKQSNNKYAASSYLSLTPEQWKSHRSYSCQVTHEGSTVEKTVAPTECSGSGGGGSGGGGSGGGEIVMTQSPSTLSASVGDRVIITCQASEIIHSWLAWYQQKPGKAPKLLIYLASTLASGVPSRFSGSGSGAEFTLTISSLQPDDFATYYCQNVYLASTNGANFGQGTKLTVLKRTVAAPSVFIFPPSDEQLKSGTASVVCLLNNFYPREAKVQWKVDNALQSGNSQESVTEQDSKDSTYSLSSTLTLSKADYEKHKVYACEVTHQGLSSPVTKSFNRGEC
notes: Fab-Fab: NVS3 Fab, (GSGGG)3 linker, NVS8 Fab; also called anti-BTC/anti-VEGF bispecific Fab; bispecific Fab-Fab

From patent US20220025032A1 (Novartis, published 2022)
